Data: the supplement of paper PMC11246515
± gives the standard deviation of the averaged measurements.

Assay: total protein half-life in vivo (active degradation + dilution); higher = more stable protein
[1] = E. coli NCM3722 delta-clpP delta-lon delta-hslV, growth: N-lim chemostat, doubling time 6 h
[2] = E. coli NCM3722 delta-hslV, growth: N-lim chemostat, doubling time 6 h
[3] = E. coli NCM3722 delta-lon, growth: N-lim chemostat, doubling time 6 h
[4] = E. coli NCM3722 delta-smpB, growth: N-lim chemostat, doubling time 6 h
[5] = wild type E. coli NCM3722, growth: C-lim chemostat, doubling time 3 h
[6] = wild type E. coli NCM3722, growth: C-lim chemostat, doubling time 6 h
[7] = wild type E. coli NCM3722, growth: C-lim chemostat, doubling time 12 h
[8] = wild type E. coli NCM3722, growth: N-lim chemostat, doubling time 6 h
[9] = wild type E. coli NCM3722, growth: N-lim chemostat, doubling time 12 h
[10] = wild type E. coli NCM3722, growth: P-lim chemostat, doubling time 6 h
[11] = wild type E. coli NCM3722, growth: P-lim chemostat, doubling time 12 h
[12] = E. coli NCM3722 delta-clpP, growth: N-lim chemostat, doubling time 6 h

| Sequence | total protein half-life in vivo [1] | total protein half-life in vivo [2] | total protein half-life in vivo [3] | total protein half-life in vivo [4] | total protein half-life in vivo [5] | total protein half-life in vivo [6] | total protein half-life in vivo [7] | total protein half-life in vivo [8] | total protein half-life in vivo [9] | total protein half-life in vivo [10] | total protein half-life in vivo [11] | total protein half-life in vivo [12] |
| --- | --- | --- | --- | --- | --- | --- | --- | --- | --- | --- | --- | --- |
| MSTLRLLISDSYDPWFNLAVEECIFRQMPATQRVLFLWRNADTVVIGRAQNPWKECNTRRMEEDNVRLARRSSGGGAVFHDLGNTCFTFMAGKPEYDKTISTSIVLNALNALGVSAEASGRNDLVVKTVEGDRKVSGSAYRETKDRGFHHGTLLLNADLSRLANYLNPDKKKLAAKGITSVRSRVTNLTELLPGITHEQVCEAITEAFFAHYGERVEAEIISPNKTPDLPNFAETFARQSSWEWNFGQAPAFSHLLDERFTWGGVELHFDVEKGHITRAQVFTDSLNPAPLEALAGRLQGCLYRADMLQQECEALLVDFPEQEKELRELSAWMAGAVR | 4.61 ± 0.64 h | 4.05 ± 0.39 h | 5.74 ± 1.3 h | 4.227 ± 0.0072 h | 2.93 ± 0.24 h | 5.88 ± 0.59 h | 11 ± 0.56 h | 4.8 ± 0.4 h | 7.13 ± 0.78 h | 5.78 ± 0.2 h | 11.9 ± 0.67 h | – |
| MSTPDNHGKKAPQFAAFKPLTTVQNANDCCCDGACSSTPTLSENVSGTRYSWKVSGMDCAACARKVENAVRQLAGVNQVQVLFATEKLVVDADNDIRAQVESALQKAGYSLRDEQAAEEPQASRLKENLPLITLIVMMAISWGLEQFNHPFGQLAFIATTLVGLYPIARQALRLIKSGSYFAIETLMSVAAIGALFIGATAEAAMVLLLFLIGERLEGWAASRARQGVSALMALKPETATRLRKGEREEVAINSLRPGDVIEVAAGGRLPADGKLLSPFASFDESALTGESIPVERATGDKVPAGATSVDRLVTLEVLSEPGASAIDRILKLIEEAEERRAPIERFIDRFSRIYTPAIMAVALLVTLVPPLLFAASWQEWIYKGLTLLLIGCPCALVISTPAAITSGLAAAARRGALIKGGAALEQLGRVTQVAFDKTGTLTVGKPRVTAIHPATGISESELLTLAAAVEQGATHPLAQAIVREAQVAELAIPTAESQRALVGSGIEAQVNGERVLICAAGKHPADAFTGLINELESAGQTVVLVVRNDDVLGVIALQDTLRADAATAISELNALGVKGVILTGDNPRAAAAIAGELGLEFKAGLLPEDKVKAVTELNQHAPLAMVGDGINDAPAMKAAAIGIAMGSGTDVALETADAALTHNHLRGLVQMIELARATHANIRQNITIALGLKGIFLVTTLLGMTGLWLAVLADTGATVLVTANALRLLRRR | 4.91 ± 0.22 h | 4.07 ± 0.092 h | 5.05 ± 0.95 h | 4.331 ± 0.021 h | 2.62 ± 0.26 h | 4.55 ± 0.4 h | 6.13 ± 1.8 h | 3.874 ± 0.016 h | 7.59 ± 0.2 h | 4.2 ± 0.081 h | 7.64 ± 0.21 h | 4.33 ± 0.16 h |
| MSTPSARTGGSLDAWFKISQRGSTVRQEVVAGLTTFLAMVYSVIVVPGMLGKAGFPPAAVFVATCLVAGLGSIVMGLWANLPLAIGCAISLTAFTAFSLVLGQHISVPVALGAVFLMGVLFTVISATGIRSWILRNLPHGVAHGTGIGIGLFLLLIAANGVGLVIKNPLDGLPVALGDFATFPVIMSLVGLAVIIGLEKLKVPGGILLTIIGISIVGLIFDPNVHFSGVFAMPSLSDENGNSLIGSLDIMGALNPVVLPSVLALVMTAVFDATGTIRAVAGQANLLDKDGQIIDGGKALTTDSMSSVFSGLVGAAPAAVYIESAAGTAAGGKTGLTAITVGVLFLLILFLSPLSYLVPGYATAPALMYVGLLMLSNVAKIDFADFVDAMAGLVTAVFIVLTCNIVTGIMIGFATLVIGRLVSGEWRKLNIGTVVIAVALVTFYAGGWAI [P0AF52] | 6.73 ± 0.3 h | – | – | – | 3.4 ± 0.27 h | 6.122 ± 0.032 h | 13.3 ± 3.4 h | 6.45 ± 0.33 h | 12.2 ± 0.93 h | 6.39 ± 0.3 h | 14.2 ± 1.6 h | 6.71 ± 0.4 h |
| MSTRLTTLSHTSEGHRVSVHYGYDDKGRLTGERQTVENPETGELLWHHETGHAYNEQGLANRVTPDSLPPVEWLTYGSGYLAGMKLGGTPLLEFTRDRLHRETVRSFGSMAGSNAAYKLTSTYTPAGQLQSQHLNSLVYDRDYGWNDNGDLVRISGPRQTREYGYSATGRLESVRTLAPDLDIRIPYATDPAGNRLPDPELHPDSTLTVWPDNRIAEDAHYVYRHDEYGRLTEKTDRIPAGVIRTDDERTHHYHYDSQHRLVFYTRIQHGEPLVESRYLYDPLGRRMAKRVWRRERDLTGWMSLSRKPEVTWYGWDGDRLTTVQTDTTRIQTVYEPGSFTPLIRVETENGEREKAQRRSLAETLQQEGSENGHGVVFPAELVRLLDRLEEEIRADRVSSESRAWLAQCGLTVEQLARQVEPEYTPARKVHFYHCDHRGLPLALISEDGNTAWRGEYDEWGNQLNEENPHHLHQPYRLPGQQHDEESGLYYNRHRHYDPLQGRYITPDPIGLRGGWNMYQYPLNPIQVIDPMGLDAIENMTSGGLIYAVSGVPGLIAANSITNSAYQFGYDMDAIVGGAHNGAADAMRHCYLMCRMTKTFGSTIADVIGKNHEAAGDRQGQPAKERIMDLKNNTVGIACGDFSAKCSDACIEKYNTGQLFGLDGIKADNPIKAKQGSSDASNY | 3.27 h | – | – | – | – | – | – | – | – | – | – | – |
| MSTSDDIHNTTATGKCPFHQGGHDQSAGAGTTTRDWWPNQLRVDLLNQHSNRSNPLGEDFDYRKEFSKLDYYGLKKDLKALLTESQPWWPADWGSYAGLFIRMAWHGAGTYRSIDGRGGAGRGQQRFAPLNSWPDNVSLDKARRLLWPIKQKYGQKISWADLFILAGNVALENSGFRTFGFGAGREDVWEPDLDVNWGDEKAWLTHRHPEALAKAPLGATEMGLIYVNPEGPDHSGEPLSAAAAIRATFGNMGMNDEETVALIAGGHTLGKTHGAGPTSNVGPDPEAAPIEEQGLGWASTYGSGVGADAITSGLEVVWTQTPTQWSNYFFENLFKYEWVQTRSPAGAIQFEAVDAPEIIPDPFDPSKKRKPTMLVTDLTLRFDPEFEKISRRFLNDPQAFNEAFARAWFKLTHRDMGPKSRYIGPEVPKEDLIWQDPLPQPIYNPTEQDIIDLKFAIADSGLSVSELVSVAWASASTFRGGDKRGGANGARLALMPQRDWDVNAAAVRALPVLEKIQKESGKASLADIIVLAGVVGVEKAASAAGLSIHVPFAPGRVDARQDQTDIEMFELLEPIADGFRNYRARLDVSTTESLLIDKAQQLTLTAPEMTALVGGMRVLGANFDGSKNGVFTDRVGVLSNDFFVNLLDMRYEWKATDESKELFEGRDRETGEVKFTASRADLVFGSNSVLRAVAEVYASSDAHEKFVKDFVAAWVKVMNLDRFDLL | 4.4 ± 0.59 h | 3.14 ± 0.31 h | 3.31 ± 0.44 h | 3.68 ± 0.21 h | 3.116 ± 0.024 h | 5.85 ± 0.14 h | 11.8 ± 0.71 h | 3.11 ± 0.44 h | 3.44 ± 0.15 h | 5.34 ± 0.14 h | 8.87 ± 0.34 h | 4.3 ± 0.3 h |
